Earlier results in article PMC3012091, “The Concentration of Soluble Extracellular Amyloid-β Protein in Acute Brain Slices from CRND8 Mice” (PLoS ONE, 2010).
Like-named read-outs stand apart in the source and are kept apart here.

How the values were obtained:
[1] = APP overexpressing mice
Source text: Constant turn-over of Aβ was included in some model calculations by adjusting the concentrations of Aβ at every location within the tissue after each iterative step of the model. […] E ... || The half-life of Aβ in the model is a more likely source of inaccuracy as the half-lives of Aβ species are less clear from the literature. There are few published half-life measurements from APP overexpressing mice.

[2] = human CNS
Source text: Constant turn-over of Aβ was included in some model calculations by adjusting the concentrations of Aβ at every location within the tissue after each iterative step of the model.

[3] = tested on: long-term potentiation (LTP); settings: 50–200 pM Aβ applied to acute hippocampal slices
Source text: At these concentrations Aβ affects long-term potentiation (LTP) when applied to acute hippocampal slices.

[4] = postmortem extraction of Aβ from brain tissue

Row | Substance | half-life ([1]; in vivo dialysis) [h] | half-life of Aβ [2] [h] | effect on LTP [3] | half-life [1, 4] [h]
1 | Amyloid-β protein [Aβ] | 4 | 8 to 9 | both inhibition and enhancement | –
2 | Aβ1–42: endogenous soluble extracellular amyloid-β protein 1–42 of CRND8 mice, measured by human beta amyloid(1–42) ELISA | – | – | – | ≤ 1.7
3 | Aβ1–40: amyloid-β protein 1–40, literature half-life only | – | – | – | ≤ 0.7
